The target of this test is RBD-ferritin fusion protein (SARS-CoV-2 spike RBD-… linker-H. pylori-bullfrog ferritin) (SARS-CoV-2 Wuhan-Hu-1 strain | bullfrog (Rana catesbeiana) | Helicobacter pylori). Briefly: SEC; concentrated supernatant (500-kDa MWCO TFF) on HiPrep 16/60 Sephacryl S-500 HR, degassed PBS, 0.4 ml/min; size from LMW/HMW calibration standards; self-assembly of the monomer into the nanoparticle. (SEC sorts molecules by how far they enter the pores of the column.)

The text below walks through data of paper PMC8092224.

Substance “RBD-ferritin fusion protein (SARS-CoV-2 spike RBD-… linker-H. pylori-bullfrog ferritin)” returned a stoichiometry N of 24.

As a reminder, the stoichiometry N is the number of molecules, sites or subunits per partner or assembly.
